The DeepSol protein solubility set

test: soluble on expression in E. coli; label from the status in PepcDB or PDB records

Sequence	soluble on expression in E. coli
MSLVPAFPHSTSPTTTVIAVPPALSLPVIETDFPRQLHPYWPRLQEKTRSWLLEKRLMPADKVEEYADGLCYTDLMAGYYIGAPDEVLQAIADYSAWFFVWDDRHDRDVIHRRATAWRQLRFQLHTALDSPRDHLHHRDPLVAGFADSMVRLYSFLGKKWNARFACHFHAVIEAYDREFHNRTRGIVPTVEEYLELRRLTFAHRIWTDLLEPSARHEIPAGVREHPGYRRAALLSQEFAAWYNDLCSLPKEIAGDEVHNLGISLIHHEGLTLEEAVTEVRRRVEECIAEFLVAEKEAVHLADGLADGTRAGHELSDAVKACVANMRNWFSTVYWFHHESGRYRVDSWDDRSTPPYVNNEAAGEGHHHHHH	soluble
MLEDLRANSWSLRPCCMVLAYRIAHFCSVWRKKNVLNNLWAAPVLVLYRVITECLFGYEIQAAATIGRRFTIHHGYAVVINKHVVAGDDFTIRHGVTIGNRGADSLACPVIGNGVELGANVILLGDITIGNHVTIGAGSVVLDSIPDHALVVGEKARVKVST	not soluble
GMTTWKELTDNNPAHSENYAQRWRNLAAAGNDIYGEARLIDAMAPRGAKILDAGCGQGRIGGYLSKQGHDVLGTDLDPILIDYAKQDFPEARWVVGDLSVDQISETDFDLIVSAGNVMGFLAEDGREPALANIHRALGADGRAVIGFGAGRGWVFGDFLEVAERVGLELENAFESWDLKPFVQGSEFLVAVFTKK	soluble
LSAPDSITVTVADHNGVAVLSIGGEIDLITAAALEEAIGEVVADNPTALVIDLSAVEFLGSVGLKILAATSEKIGQSVKFGVVARGSVTRRPIHLMGLDKTFRLFSTLHDALTGVRGGRIDR	soluble
MGSDKIHHHHHHMNDYYDLLDRVKILIKLGRYKEALRIIDEVIEDSPDVSFLYYKISILFTCRRFEEAKSTLNTAISIFPGSTVFRIWKMVLALETKDVLSMAQINFNDNSVASSQLNAPFQSMDFNDNYAYTFSKSVRDLIMKLGKSAIYCDLQQLKEKILTERISTETINGLYTDIMDYRNRDIVELSSYGRAFYFYSIGRIGDSFIEISSLPDHEVFKAFILGKYSDFLKQTYEIADPYTRAVRFHILRLRELSLKEIETASYIGMDELVMSKRIIEFNGSSLSTQVVVNKVPESHL	not soluble
MGSDKIHHHHHHVDPVVLLTSVSALTQTQKPCRGRRNARDRIPTCSQETLEGKALALRVAVVGGGPAGSCAAETLVKAGIETYLIERKLDNAKPCGGAIPLCMVSEFDLPAEIIDRRVRNMKMISPSNREVNINLDNADEYIGMTRREVLDGFLRDRAAKLGTKLINGTLFRLELPKGDRDPYVLHYADHSNGSLEGIPSTLEVDVVIGADGANSRIAKAIDAGDYNYAIAFQERIRLPEDKMHYYENLAEMYVGGDVSPDFYAWVFPKYDHVAVGTGTMHVNQRLIKKLQAGIRARAANRLEGGKIIKVEAHPIPEHPRPRRVVGRAALVGDAAGYVTKSSGEGIYFAAKSGRMCAETIVETSNNGARIPTEADLKQYLRRWDKKYGTTYKVLDLLQTVFYRSDATREAFVEMCDDKDVQRLTFDSYLYKTVVPANPLVQLKITAKTLGSLLRGNALAPAEYKPIDAA	not soluble
MSNNTKRVGSQTIELKSKPRIIATYSVVGPREGQGPLKEYFDKILQDDCNGCESFEKAESSLMITAIEGVIKKGNVKEEDVDYLFSGDLLNQLTSTNFVAREFKIPFFGVYGACSTMAESLSLSSMIMDGDFAKYAIASTSSHFSSAERQFRFPLEYGCQRKEYSQWTVTGSGAMLLGKSGDYPYVTHVTTGIVKDYGIKDADNMGAAMAPAAVDTIYKHFVDTGRKPEDYDVIATGDLGAVGKKLTEELLKEYGYDISKVYIDCGEKIFDNEKQGTFAGGSGCGCSAVVACGYLYRMLKEKKLKRVLLVSTGALLSSTSALQGESIPGIAHAVAIEYILEHHHHHH	soluble
MGSDKIHHHHHHMRNSNLSKKPFIITIASTKGGSAKSTNAANIGAFCADHGLKTLLIDTDTQPTLSAYFALNYVAPGGIHEFLTYQDVEPSHIISKTTLSNLDLIQSNDPTNNVSQMLRNAPDGAIRFSFLLKKLKGYDVIIVDTRGTRDITVDMSVLAADLLFCPILPHILSAKEFIRGTMGMYQELQTFEAFGFSLPPLKAVPNCVDHTNDVKFVLGHLKQLFEQNLSADKTLLDFHIPNKVAYREAATYSLPVYRHSKAEYVVIQALCMHLLPQFAHQFEQGLSGHLGGHNV	not soluble
MVCISRFLPVKGVQNINGKELKSIVGKKGKYFIDVRTVGEYRGNHMKGFQNIPLNDLASKANQLDKNKEVIVICQSGMRSKQAAKVLKKLGFQQVINVSGGMNSL	not soluble
MDFVTGAVAHRRKFGGGRGQSIAKAVGLKQGVTPKVVDGTAGLGRDAFVLASLGCTVTMVERHPVVAALLEDGLRRAYQDAEIGDWMRERMQLFHGSSLEALAKLEQGVDVVYLDPMYPHRDKSALVKKEMRVFQTLVGADLDADGLLAPAMALASKRVVVKRPDYAEDLAGVKPSMVIETKKNRFDVYVKSAMKLEHHHHHH	not soluble
MKYVFIENHRAEFSIKAMCRVLRVARSGWYVWLRRRHQMSLRQQFRLTCDAAVHKAFFEAKQRYGAPRLADELPEFNIKTIAASLRRQGLRAKASRKFSPVSYRAHGLPVLENLLEQDFSASGPKPEVGG	not soluble
NIILQEDNAQLDEVVVVGYGTMKKKDLTGSVTAVKGDELAARRTTQLSTALQGALSGVMVSRDNGAPGSSASIQIRGVTTIGDSSPLVIIDGIPGDINSVNPEDVESMSVLKDAASASIYGSRAAAGVIVITTKRAKSGD	not soluble
MITTRTAKQCGQADYGWLQARYTFSFGHYFDPTLLGYASLRVLNQEVLAPGASFQPRTYPKVDILNLILDGEAEYRDSDGNHVQAKAGEALLLAAQPGISYSEHNISKVKPLTRMQLWLDACPERENTLVQKIPLLAAQQQLLASPDGEQNSLQLRQQVWVHHITLEKGESLNFQLHGPRAYLQSIHGTFHAMTHNEEREALTCGDGAFIRDEPNITLVADTPLRALLVDLPV	not soluble
MAHHHHHHMNKNFAQILEDFISDGSRKHRGHGDDGANEENVPHFINQDGSNLFNDDIGKKFEKKNFFKYTEYSLSSLYMSDNQIPLEEDPKFETFINVITKASDVNNEYKWVDDYFKFEVKEEMNILTPRSQDRDFLFRKYLQPNQLKNICLLRKYEQAAISKTPEKNKVDAKIVSEYIVHDSYRQIMKALNFKWSHRIFTKARIFHSKYGNSDHIVILVMRHYKDENFLHPLFHDRALVQIKSYLNDNKHADMTQKNLLNYTEVFKPYVSLRKVDSNFVEQIKDRYYGAF	soluble
MRITFIGGGNMAGAIIGGLARQGGHRIHVVEHQQDKLDQLAAGFGCSGSQALPERFAADEVVVLAVKPQQLRELCLALAPVLNGALVVSIAAGIRLDALARWLGSRRIVRVMPNTPAMVGKGVSGLYADAAVSAADRDAAETVMRAAGLTVWLADEAGIDDITCVSGSGPAYVFYFIESMIEAAAKAGFGEDKARELVLATFDGAVELARQSPLPVAELRRNVMSKGGTTERAIARFEAEGVKAAIVAGAMDCRDRSIEMGRELSQELEHHHHHH	soluble
MGSDKIHHHHHHMAGVILLLMGEGLACAHDTALLDKAGRLMASRDYAAAYALLEPVESEYSGDPAYDMLFGLAAIDSGHVTRGVFALERVLAVQPYNGNARAQIARAYFLLGEQEAARAEFRNVLNQQPPEEITQVINRYMSAIDKAQGLTTAFSAYLEGGVGHDSNVNSATAASSVTVAVPALGGLIVDIGLDRQARESSDNYTNLAGGISFRTPLARRFALFAGINASQRLNRHQDAFDLGMLDANVGLSYRQHRDTYTVAAQANSLSLDDQTYRRAYGINMQWQRDIDTKNQVNLFAQVSRLAYPDNRIRDADRYIVGGGWAHVFDGDLTPLLFVSGYGGKEQARNEYADFLSYRVHGVRSGGQLTLRPNLVAFTTLGYENRRHDEPETFPFLFATREDKQLDASVGLRYLPGYNWIIKPQFTFIRNDSTVELYSFDRYMVSVSVRREFNW	not soluble
GSPGGSLFVALYDFVASGDNTLSITKGEKLRVLGYNHNGEWCEAQTKNGQGWVPSNYITPVS	soluble
MSLAPPVRSLHIGTVAGFTADPQHLDRIAIHLPALNLPDSLIFARLSKPWASHASGFCFYPEPGDEVVVGFIDSDPRYPMILGALHNPKNTAPFPPDEKNNRKGLIVSQADQTQALMIDTEEKTLRLMAGDNTLTLTGEGNLTMSTPNALQLQADTLGLQADSNLSIAGKQQVEITSAKINMKEGHHHHHH	soluble
MERKISRIHLVSEPSITHFLQVSWEKTLESGFVITLTDGHSAWTGTVSESEISQEADDMEMEKGKYVGELRKALLSGAGPADVYTFNFSKESCYFFFEKNLKDVSFRLGSFNLEKVENPAEVIRELICYCLDTTAENQAKNEHLQKENERLLRDWNDVQGRFEKCVSAKEALETDLYKRFILVLNEKKTKIRSLHNKLLNAAQ	soluble
MGSDKIHHHHHHMLLDHIFICVDENAPEADELVFLGLAEGTPNRHRGQGTANRRFFLPGVMLELLWVADLNELQSVTTRTLGLADRFAARKDGGSPFGFVFKPKNPRIGNSCPFPFRSYHPAYLPETLDMKVADATPRIEPLYVFIDFLPASCSTAQHHPCGIERLTSVHVTFPAQGAPSPVARMIDSLPGMSARVGREHLLELCFDDGKRGVRHDFRNRLPLIIRW	not soluble
MSLAEVTVVNFGGANGDAQKAAFNKPFEAQTGNKVTAVEYNGEQAKIKAMVEAKHVNWDVVEVESGDIGRGCDEGLFEKLDWSKIAKKADLVPEAPHTCGVGFFVWSTALAYNADKLKAAPSGWADFWDVKKFPGKRGMRKGARYNLEFALMADGVPVKDVYKVLATKDGQNRAFKKLDQLKPYIQWWEAGAQPPQFLVAGDVVMSTAFNGRIDAAQREGKNLKVVWNGSIYDLDYWAIPKGTPNKALAEQYIAYTLSQKAQQEYAKHIAYGPANLAAIKALDAKTQANLPNSPENGKSAVLQNLQFWTDHGDELEQRFASWASKEGHHHHHH	soluble
SPYIPLMEFSCSHSHLVCLPAEWRTSCMPSSKMKEMSSLFPEDWYQFVLRQLECYHSEEKASNVLEEIAKDKVLKDFYVHTVMTCYFSLFGIDNMAPSPGHILRVYGGVLPWSVALDWLTEKPELFQLALKAFRYTLKLMIDKASLGPIEDFRELIKYLEEYERDWYIGLVSDEKWKEAILQEKPYLFSLGYDSNMGIYTGRVLSLQELLIQVGKLNPEAVRGQWANLSWELLYATNDDEERYSIQAHPLLLRNLTVQAAEPPLGYPIYSSKPLHIHLY	not soluble
SALSSCASLLGSPLSNDFMVLSLSDLLTPWEVIRKRAEAAAILDLVTVIYNPRGSRFPNNLEKVMEYFLKYRSGDTPVGIVRNAYRPDQSAKIVQLKDFSCSEIDMLTTVIIGNSETY	not soluble
MAHHHHHHMAYLPPNMAERLQMSSSSTEPTTTSSMLPAPHSSANMRHIEGLVVVPGVVKVSRSDVASQYTMPHTNNAPLLFSEPEHRAVDNSSGSNDAQLEPKDPHLGLMPHCLSCTLLTSAGAQEPDDVYGRSMPSSSAVGAVTTELECAVVPTLHASFTPGVSTSIMPAPTEAHSACGSRPLQQPRWGGNYDSGSQCVSFRGADRSNNVSGCGLRLVGDDVEWLQGSFEDSASSPREEVQLSWGHLQRQPCAGKSSAARAVPPALHDVREGTGGEKVLAAHHRFERAVQPQTQRQGVFPSADQENCQAAAMLWAAQQMAVFD	not soluble
